From the DeepSol protein solubility set

Assay: soluble on expression in E. coli; label from the status in PepcDB or PDB records
With “MKIHTTEALMKAEISRRSLMKTSALGSLALASSAFTLPFSQMVRAAEAPVEEKAVWSSCTVNCGSRCLLRLHVKDDTVYWVESDTTGDDVYGNHQVRACLRGRSIRRRMNHPDRLKYPMKRVGKRGEGKFERISWDEALDTISDNLRRILKDYGNEAVHVLYGTGVDGGNITNSNVPYRLMNSCGGFLSRYGSYSTAQISAAMSYMFGANDGNSPDDIANTKLVVMFGNNPAETRMSGGGVTYYVEQARERSNARMIVIDPRYNDTAAGREDEWLPIRPGTDGALACAIAWVLITENMVDQPFLDKYCVGYDEKTLPANAPRNAHYKAYILGEGPDGIAKTPEWAAKITSIPAEKIIQLAREIGSAKPAYICQGWGPQRHSNGEQTSRAIAMLSVLTGNVGINGGNSGVREGSWDLGVEWFPMLENPVKTQISVFTWTDAIDHGTEMTATRDGVRGKEKLDVPIKFLWCYASNTLINQHGDINHTHEVLQDDSKCEMIVGIDHFMTASAKYCDILLPDLMPTEQEDLISHESAGNMGYVILAQPATSAKFERKPIYWMLSEVAKRLGPDVYQTFTEGRSQHEWIKYLHAKTKERNPEMPDYEEMKTTGIFKKKCPEEHYVAFRAFREDPQANPLKTPSGKIEIYSERLAKIADTWELKKDEIIHPLPAYTPGFDGWDDPLRKTYPLQLTGFHYKARTHSSYGNIDVLQQACPQEVWINPIDAQARGIRHGDTVRVFNNNGEMLIAAKVTPRILPGVTAIGQGAWLKADMFGDRVDHGGSINILTSHRPSPLAKGNPSHSNLVQIEKV” the “soluble on expression in E. coli” value was “not soluble”.
With “MKIIARNKKALFDYSIIERFEAGIVLKGSEVVALRAGRANLKDSFVRIIKNEIFLLNSHISLLHTTHSFYKHEERGARKLLMHRKQIDKLLGKVSIEGYTIVALDLYFNTKNKVKATLALAKGKNLHDKRETLKKKQADLEARAAMKNYK” the “soluble on expression in E. coli” value was “not soluble”.
With “MKIITCYKCVPDEQDIAINNADGTLDFSKADSKISQYDLNAIEAACQLKQQLGDAQVVAMSVGGKALTNAKGRKDVLSRGPDELIVVIDDQFEQALPQHTATALAAAAQKSGFDLLICGDGSSDLYAQQVGLLVGEALNIPAINGVSKILSLTDSTLTVERELEDEVETLSIPLPAVIAVSTDINTPQIPSMKAILGAAKKPVQVWSPADIGLNSVPAYSAQQVAAPKQRERQRVVIEGDGEEQIAAFVENLRKII” the “soluble on expression in E. coli” value was “not soluble”.
With “MKIKEMVTSEMPRERLLSHGAKSLSNTELLAILINTGRKGFSSIDISNELLKSASNLNELKKSSINDLIKVKGIGLQKAITLKAAFELGERMGRRAENNRIKITQPSDVADYMIPTMKDLTQEHFVILLLNSKNVVIKETCVFKGTLNSSIVHPREIFSIAVRENANAIIAVHNHPSGDVLTIV” the “soluble on expression in E. coli” value was “not soluble”.
In the case of “MKILTQSLPNSSAAYLQGYLRENTDSSVTYPTVIIVPGGSYTHIPERQAEDLALAWVARGYQAFFLRYSFISEKTPLLPNPVIELAQSVAAIHAHATTWHVDLRRLAVAGFSVGGHITALFNDWWSEADFNQQAHTTPEQLKVQAVILGYPVISPDLGFPTDAATLATWSTTPKKIAADQHVTAANAPTFIWVTANDPLVPVQNALAYAQASLTHGVDTELHVFHNGPHGLALANSVTAWKPGTDLPHVAHWLDLATEWLQDLKLEHHHHHH”, the “soluble on expression in E. coli” value is reported as “soluble”.
With “MKIMIIGATGMAGQALVTTALNRGHQVVAVARSAEKLATLPSNPNLTSIVRDAFNLTTTDLSAVDAVVDAFATAPDHAYLHVDLATHLISQLRETTTPRVAFILGAGSLTTGDDAHLFVHDLEQDPHAASFISVPQNQLKELTFLRDVDNVNWFGVSPAADFHPGEAQPALLGTDTLLFNDQQQSGTSAGTMAVAILDELENPLEHHHHHH” the “soluble on expression in E. coli” value was “not soluble”.
With “MKIPASSPQDTTNNNNNTNSTDSNHLSMDEHVMRSMDWDSIMKELELDDDSAPNSLKTGFTTTTTDSTILPLYAVDSNLPGFPDQIQPSDFESSSDVYPGQNQTTGYGFNSLDSVDNGGFDFIEDLIRVVDCVESDELQLAQVVLSRLNQRLRSPAGRPLQRAAFYFKEALGSFLTGSNRNPIRLSSWSEIVQRIRAIKEYSGISPIPLFSHFTANQAILDSLSSQSSSPFVHVVDFEIGFGGQYASLMREITEKSVSGGFLRVTAVVAEECAVETRLVKENLTQFAAEMKIRFQIEFVLMKTFEMLSFKAIRFVEGERTVVLISPAIFRRLSGITDFVNNLRRVSPKVVVFVDSEGWTEIAGSGSFRREFVSALEFYTMVLESLDAAAPPGDLVKKIVEAFVLRPKISAAVETAADRRHTGEMTWREAFCAAGMRPIQQSQFADFQAECLLEKAQVRGFHVAKRQGELVLCWHGRALVATSAWRF” the “soluble on expression in E. coli” value was “soluble”.
In the case of “MKIPSVFMLEQQKASLQLHVKQLANEAIQKSAPSAWFEVLYAEAQGDTTQIPWAKLTPHPYLQEWLTNHQPFPSGQKALVIGCGLGDDAEALAKLGFAVTAFDISPTAIAWCGQRFPNSNVNYIVADLLAIPPQWHLAFDFVFECRNIQALPLNIRAEVITSIASVVAPDGTLLLINRVRLEHHHHHH”, the “soluble on expression in E. coli” value is reported as “not soluble”.
In the case of “MKIQDLLKKEVMIMDLKATSKEAAIDEMITKLVDTGVVTNFAIFKDGIMKREAQTSTGLGDGIAMPHSKNAAVKEATVLFAKSASGVDYEALDGQPTDLFFMIAAPDGANDTHLAALAELSKYLLKEGFADQLRQAKTPDDIIATFDS”, the “soluble on expression in E. coli” value is reported as “soluble”.
For “MKIQFNRFLTRSLLTAALTGAASMAAAATMEVYKSPTCGCCAKWVDHMRDNGFTVNIHDIGNDEARAEAGILPELGSCHTALVNGYAIEGHVPADDIKQLLKERPRAVGLSAPGMPHGSPGMETGRVDSYNVLLIRKPGDKRSATEIYNRYGPGKSGAAEKTSENSTTDSVLRLK”, the “soluble on expression in E. coli” value was “not soluble”.
In the case of “MKISEIENTFKEKLSVSLKKQEDTIRRQSLAENQGKLEVMENMNRVLSEAIESLQSQHSKDTEIIKAGLRTKGDRVTYVDNLRVEKKALEETVSQLRSENDKLKKIIRGESTNKPVLRSRTTKP”, the “soluble on expression in E. coli” value is reported as “not soluble”.
In the case of “MKIVKDFSPKEYSQKLVNWLSDSCMNYPAEGFVIGLSGGIDSAVAASLAVKTGLPTTALILPSDNNQHQDMQDALELIEMLNIEHYTISIQPAYEAFLASTQSFTNLQNNRQLVIKGNAQARLRMMYLYAYAQQYNRIVIGTDNACEWYMGYFTKFGDGAADILPLVNLKKSQVFELGKYLDVPKNILDKAPSAGLWQGQTDEDEMGVTYQEIDDFLDGKQVSAKALERINFWHNRSHHKRKLALTPNF”, the “soluble on expression in E. coli” value is reported as “soluble”.
For “MKIVLAYSGGLDTSIILKWLKETYRAEVIAFTADIGQGEEVEEAREKALRTGASKAIALDLKEEFVRDFVFPMMRAGAVYEGYYLLGTSIARPLIAKHLVRIAEEEGAEAIAHGATGKGNDQVRFELTAYALKPDIKVIAPWREWSFQGRKEMIAYAEAHGIPVPVTQEKPYSMDANLLHISYEGGVLEDPWAEPPKGMFRMTQDPEEAPDAPEYVEVEFFEGDPVAVNGERLSPAALLQRLNEIGGRHGVGRVDIVENRFVGMKSRGVYETPGGTILYHARRAVESLTLDREVLHQRDMLSPKYAELVYYGFWYAPEREALQAYFDHVARSVTGVARLKLYKGNVYVVGRKAPKSLYRQDLVSFDEAGGYDQKDAEGFIKIQALRLRVRALVEREGHGA”, the “soluble on expression in E. coli” value was “soluble”.
In the case of “MKIVRRDFVRNGPGSVKMVAEDSDDLWYAYNLIAVGDSVMAVTFRKVQREIPGGGRDSERVKLKLEVQVEEVDYDKDGSVLRIRGKNILENEHVKIGAFHTLELELKRPFVLRKEMWDSMALDTLKQASDPAASADLAVVLMQEGLAQIFLVGRSVTSSRARIETSIPRKHGPAIAGYESALKKFFENVLQAFVKHVDFSVVRCAVVASPGFTKDQFHRHLLLEAERRQLRPIIENKSRIILVHTNSGYRHSLGEVLHAPNVMNMIKDTKAAKEVKALNDFHNMLSTEPDRACYGPKHVEVANERMAIQTLLITDELFRNSDVKTRKKYVNLVESVKDSGGDAFIFSAMHVSGEQLAQLTGIAALLRFPLPELEDIEM”, the “soluble on expression in E. coli” value is reported as “soluble”.
In the case of “MKKALFLVGLVFTAGVISSCGGVSSQRTYEGAAVGAAVGAAAGVLLDKENRWRGGVIGAALGAILGGTITEIAQRAAKEAAQNNKPVVYRAEDGSQMVRAEPVEKRGNCTLVKTKYYQNGKLVKVEEKEVCE”, the “soluble on expression in E. coli” value is reported as “not soluble”.
For “MKKARRRIDVDELFEGVRRGDRTLISRAITLLESTAPAHRVLAQELLVKLLPFSGKALRVGITGVPGVGKSTFIEALGMKLIGDGHKLAVLAIDPSSTKTRGSILGDKTRMAKLAREDNAFIRPSPSAGTLGGVAKATRESMVVFEAAGYDVILVETVGVGQSEVAVSQMVDCFTFLALAGAGDQLQGIKKGILEMADLVAINKADGPNLKNAKRAARELAAAMRMVRQENDLWHPPTITMSAVEHEGVDEFWEHVQNHNKAMLESGVFEHNRREQQVQWMWSMVHETLLQRLNTDPNVVEVKKLVEDQLRHAHITPTLAAERILKAFDHVTAD”, the “soluble on expression in E. coli” value was “not soluble”.
With “MKKDITLFTSARPELKFFRLSECKEHLDTAAMWAKNAWGYMHLDDEQFHYKQLQELCEHVYIAMYDGLPVGMLAVIEKTLSLEENREESSEKIVEEPSTPEITEMKNAYLDYVYIDERARSIGLAGIIIEKAKNLAREMNAEVMSLETLNSTLNGFYKRKGGRVICEGRYNDSYPTEVMRLRF” the “soluble on expression in E. coli” value was “not soluble”.
In the case of “MKKEANFDEVLFSLGQEVIQVLIRRGASLEDAQDAVSQTYTTIFSILPEITSENLRPWFFRVTFNYYITMYRKKKRERTFVANSHPVQSIEKMEGQELLLLIDSLKDEEQELVLLKYYYQLSYAEIALILELSVENVRKKLYRTRQKLKKELEE”, the “soluble on expression in E. coli” value is reported as “not soluble”.
In the case of “MKKEEMDVVSLRIIKLYFLGIRELNFPDYNKRFQQKDMELFIQLADMMENLPNLDEQLIYELEELKDYLFYVKTEKYSLTVHDMFLEMKSELEKII”, the “soluble on expression in E. coli” value is reported as “not soluble”.
With “MKKESQVIFDKNVIEFVTVAAEFCAFLERAESMKRSTFVDTTLKILPLLYLKASMLPKCEMIGDESPETYVTEEIYEVLRINLASILAEKDDYLEVFLPDMAYSDEPIKKNISEDLADIYQDIKDFIFVFQLGLNETMNDSLAICQENFGLLWGQKLVNTMRALHDVKYSPKARLEHHHHHH” the “soluble on expression in E. coli” value was “soluble”.
With “MKKETLYVAFSTQKGGVGKTTFTVLVASYLYYLKGYNVAVVDCDYPQHSISAMRKRDAEQVNGDDYYKQLAFSQFKTLGKKAYPVLCSSPDEAIKTADEFLASAGSDYDVVFFDLPGTVNSEGVINSLSGVDYIFTPIAADRVVLESSLSFAVAINKLLVKNEACRLKGLHLFWNMVDGREKTDLYTLYEQTIGELELPLMKVFIPDTKRFKKELDAQRKTVFRSTLFPADKRLVKGSNIEELITEIAYLIKL” the “soluble on expression in E. coli” value was “soluble”.
For “MKKFVALILGCITICGLYGCSKNSSQIINKTFSLPAYNRIEIDSANDDIKIISGKHYRVRYVGQNKLKPTIKVKNGVLVIDSPKKSTIINSNIFGSKNIKQTLTIEMPKKELKYLSVDTSNGDVSVDYLEVQKGTIDTSNGNVNLKNLITKKDFEIDTSNGTVKVGKSNVEGYALSTSNGSIVVKGENKSDEFEKNTSAKNVLSIDTSNGNIYVNLEHHHHHH”, the “soluble on expression in E. coli” value was “not soluble”.
In the case of “MKKGIDIGGTFIKVLWEDGKKEKHYIKDLKKDREALMEKIREVIKAGNPSGVGIAVAGFTSLNGIVYKSPNIPALDKTDFRKVLEDINIPFVVGNDVNLGAFGEWYYDYRDSKILLLVAVGTGLGTGLVYKGEVFFGVCGSALEMGHHTVKKGGELCNCGRKGCWEAYCSSYAIEREYKKLTGRTLKDYEIAEKAKEGEEEALKVVESFKDYLITGLMNGVHIFNPDRIVLAGGVIETFKEFLRDVPEKVKEISEELPALCLKISFSRAGEFMGARGALAYALKYLLEHHHHHH”, the “soluble on expression in E. coli” value is reported as “soluble”.
